Data taken from patent US20090318342A1, “Compounds” (IMPERIAL INNOVATIONS LIMITED, priority 2005, published 2009).

Key:
[1] = biological target: T1, recombinant human ADAMTS-4 lacking the C-terminal spacer domain (human) (UniProt O75173); assay: inhibition of aggrecan cleavage by 0.5 nM ADAMTS-4, anti-GELE Western blot, densitometry
T1 sequence: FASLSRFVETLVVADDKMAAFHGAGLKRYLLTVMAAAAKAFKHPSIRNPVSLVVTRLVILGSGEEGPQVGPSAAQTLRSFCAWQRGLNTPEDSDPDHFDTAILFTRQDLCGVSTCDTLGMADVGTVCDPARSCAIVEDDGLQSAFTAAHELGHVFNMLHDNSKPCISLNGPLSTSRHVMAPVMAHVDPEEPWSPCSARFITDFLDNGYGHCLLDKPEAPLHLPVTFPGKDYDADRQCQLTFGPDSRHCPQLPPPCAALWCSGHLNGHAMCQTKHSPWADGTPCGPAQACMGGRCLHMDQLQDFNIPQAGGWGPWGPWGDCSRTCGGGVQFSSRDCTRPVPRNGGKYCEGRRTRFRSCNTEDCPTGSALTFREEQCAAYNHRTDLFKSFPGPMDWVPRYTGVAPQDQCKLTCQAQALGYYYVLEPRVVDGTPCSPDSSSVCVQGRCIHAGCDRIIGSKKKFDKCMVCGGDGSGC

[2] = biological target: T2, ADAMTS-4 (as used in Example 4; form not stated) (Homo sapiens (Human)) (UniProt O75173); assay: GST-IGD-FLAG substrate assay, Ki(app)
T2 sequence: T1 sequence

[3] = biological target: ADAMTS-5 (Homo sapiens (Human)) (UniProt Q9UNA0); assay: GST-IGD-FLAG substrate assay, Ki(app)
[4] = biological target: catalytic domain of membrane-type 1 MMP (MMP-14(CD)) (Homo sapiens (Human)) (UniProt P50281); assay: enzyme inhibition kinetics, Ki(app), 5 nM MMP-14(CD)
[5] = biological target: full-length collagenase 1 (MMP-1) (Homo sapiens (Human)) (UniProt P03956); assay: enzyme inhibition kinetics, Ki(app), as in Example 1
[6] = biological target: catalytic domain of stromelysin 1 (MMP-3(ΔC)) (Homo sapiens (Human)) (UniProt P08254); assay: as above
[7] = biological target: gelatinase A (MMP-2) (Homo sapiens (Human)) (UniProt P08253); assay: as above
[8] = biological target: catalytic domain of stromelysin 1 (MMP-3(ΔC)) (Homo sapiens (Human)) (UniProt P08254); assay: enzyme inhibition kinetics, Ki(app), 1 nM MMP-3(ΔC)
[9] = biological target: soluble form of TACE in which the transmembrane and C-terminal cytoplasmic domains are deleted (TACE R651) (human) (UniProt P78536); assay: TACE inhibition kinetics at pH 7.5
[10] = biological target: gelatinase A (MMP-2) (Homo sapiens (Human)) (UniProt P08253); assay: enzyme inhibition kinetics, Ki(app), 1 nM MMP-2
[11] = biological target: full-length collagenase 1 (MMP-1) (Homo sapiens (Human)) (UniProt P03956); assay: enzyme inhibition kinetics, Ki(app), 5 nM MMP-1
[12] = biological target: soluble form of TACE in which the transmembrane and C-terminal cytoplasmic domains are deleted (TACE R651) (human) (UniProt P78536); assay: TACE inhibition kinetics, Ki(app), pH 9.0, fit with equation 3 (cooperative)
[13] = biological target: full-length collagenase 1 (MMP-1) (Homo sapiens (Human)) (UniProt P03956); assay: MMP-1 inhibition under the conditions used for TACE activity measurements
Target sequence in this assay (P03956 100-469 limits assumed): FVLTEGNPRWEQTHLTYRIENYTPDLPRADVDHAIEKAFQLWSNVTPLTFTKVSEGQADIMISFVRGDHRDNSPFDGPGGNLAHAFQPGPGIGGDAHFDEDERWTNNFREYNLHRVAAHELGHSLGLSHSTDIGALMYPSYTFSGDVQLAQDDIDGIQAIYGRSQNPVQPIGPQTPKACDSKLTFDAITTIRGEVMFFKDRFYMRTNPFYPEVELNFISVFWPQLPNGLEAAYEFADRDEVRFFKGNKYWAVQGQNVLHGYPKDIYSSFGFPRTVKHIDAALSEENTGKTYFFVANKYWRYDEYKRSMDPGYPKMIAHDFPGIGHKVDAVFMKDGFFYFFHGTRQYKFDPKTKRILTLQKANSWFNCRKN

(-1A)N-TIMP-3, sequence (chain): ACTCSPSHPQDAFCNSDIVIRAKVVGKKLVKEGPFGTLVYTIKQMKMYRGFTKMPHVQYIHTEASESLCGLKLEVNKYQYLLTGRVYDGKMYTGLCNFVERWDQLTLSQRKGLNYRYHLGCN

Ki [1] [nM]	Ki [2] [nM]	Ki [3] [nM]	Ki [4] [nM]	Ki [5] [nM]	Ki [6] [nM]	Ki [7] [nM]	Ki [8] [nM]	Ki [9] [nM]	Ki [10] [nM]	Ki [11] [nM]	Ki [12] [nM]	Ki [13] [nM]	Substance
15	20	1.5	2300	> 500	> 1000	> 1000	> 10000	46	4200	547	35.6	–	N-TIMP-3(T2G)
18	25	1.9	941	> 500	> 1000	> 1000	3300	–	614	1300	33.9	412	(-1A)N-TIMP-3
